The record followed here is article PMC6464389 (Circulation, 2019).

For this test, the target named is recombinant GPIbα extracellular domain (UniProt P07359 17-531). Briefly: SPR.

B1: recombinant wild-type protein disulfide isomerase (wtPDI) (enzyme)
chain: not shown
B1: the Kd was 900 nM.

One may read the Kd as the concentration at which binding is half-saturated.
